In test [1] the target is T1, carcinoembryonic antigen (UniProt P06731 35-685).
T1 construct: Bought reagent (Biodesign); also called CEA
T1 sequence: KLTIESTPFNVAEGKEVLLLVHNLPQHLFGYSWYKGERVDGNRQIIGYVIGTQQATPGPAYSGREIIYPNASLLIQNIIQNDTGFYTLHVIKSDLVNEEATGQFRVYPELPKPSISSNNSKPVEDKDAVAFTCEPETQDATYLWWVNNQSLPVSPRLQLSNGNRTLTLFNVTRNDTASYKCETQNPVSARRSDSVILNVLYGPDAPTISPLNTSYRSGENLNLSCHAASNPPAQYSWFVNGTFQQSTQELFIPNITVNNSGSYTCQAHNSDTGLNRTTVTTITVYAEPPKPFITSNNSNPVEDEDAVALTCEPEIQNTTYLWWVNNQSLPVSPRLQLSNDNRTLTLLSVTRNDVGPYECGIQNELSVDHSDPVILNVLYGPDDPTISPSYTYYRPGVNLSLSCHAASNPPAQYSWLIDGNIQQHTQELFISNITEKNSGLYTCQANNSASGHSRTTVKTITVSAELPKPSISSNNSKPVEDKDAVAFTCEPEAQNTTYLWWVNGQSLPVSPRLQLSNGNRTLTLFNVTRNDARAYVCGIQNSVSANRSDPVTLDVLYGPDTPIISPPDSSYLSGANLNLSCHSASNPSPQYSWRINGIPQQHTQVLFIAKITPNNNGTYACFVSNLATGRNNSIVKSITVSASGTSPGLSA
The test can be described thus: CEA-coated plate assay on thermolysin-treated lysate, BLA/nitrocefin read-out.

Test [2] addresses T1, carcinoembryonic antigen. The test can be described thus: plate assay: CEA coated on wells, culture lysate added, bound fusion read by BLA activity on nitrocefin.

Residue numbers refer to the chain shown, from its start.

B1: NA06.4 (scFv)
chain: QVKLQQSGAELVKSGGSVKLSCTASGFNIKDSYMHWVRQGPEQGLEWIGWIDPENGDTEYAPKFQGKATFTTDTSSNTAYLQLSSLTSEDTAVYYCNEGTPTGPYYFDYWGQGTTVTVSSGGGGSGGGGSGGGGSENVLTQSPAIVSASPGEKVTITCSASSSVSYMHWFQQKPGTSPKLVIYSTSNLASGVPARFSGSGSGTSYSLTISRMEAEDAATYYCQQRSSYPLTFGAGTKLELKRAATLVSEKQLAEVVANTITPLMKAQSVPGMAVAVIYQGKPHYYTFGKADIAANKPVTPQTLFELGSISKTFTGVLGGDAIARGEISLDDAVTRYWPQLTGKQWQGIRMLDLATYTAGGLPLQVPDEVTDNASLLRFYQNWQPQWKPGTTRLYANASIGLFGALAVKPSGMPYEQAMTTRVLKPLKLDHTWINVPKAEEAHYAWGYRDGKAVRVSPGMLDAQAYGVKTNVQDMANWVMANMAPENVADASLKQGIALAQSRYWRIGSMYQGLGWEMLNWPVEANTVVETSFGNVALAPLPVAEVNPPAPPVKASWVHKTGSTGGFGSYVAFIPEKQIGIVMLANTSYPNPARVEAAYHILEALQ
notes: Variant of the CAB1 scFv-BLA fusion built on NA05.6; Tested as crude lysate after thermolysin treatment; Positions are numbered along the whole CAB1 fusion (pME27)
With B1, the binding result in test [1] is given as “binds”.

B2: NA05.15 (scFv)
chain: B1 chain with K13R, G16T, V37L, F170Y, V181W, A194D
notes: Variant of the CAB1 scFv-BLA fusion, tested as crude lysate; Positions are numbered along the whole CAB1 fusion (pME27)
B2: the binding result in test [2] was “binds”.

B3: NA06.10 (scFv)
chain: B1 chain with A194D
notes: as for B1
On to B3, for which, in test [1], the binding result is listed as “binds”.

B4: NA06.6 (scFv)
chain: B1 chain with K3Q
notes: as for B1
With B4, the binding result in test [1] is listed as “binds”.

B5: NA06.11 (scFv)
chain: B1 chain with K3Q, V146M, A194D
notes: as for B1
As for B5, the binding result in test [1] is recorded as “binds”.

B6: NA05.12 (scFv)
chain: B1 chain with K3Q, K13R, S14P, G16T, V181W
notes: as for B2
Regarding B6, in test [2], the binding result is reported as “binds”.

B7: NA06.2 (scFv)
chain: B1 chain with E42G, V146M, A194D
notes: as for B1
For B7, the binding result in test [1] is reported as “binds”.

B8: NA05.8 (scFv)
chain: B1 chain with G16T, V37L, V146M, F170Y, V181W, A234G
notes: as for B2
In the case of B8, in test [2], the binding result is “binds”.

B9: NA06.12 (scFv)
chain: B1 chain with E136Q, V146M
notes: as for B1
Consider B9, for which the binding result in test [1] was “binds”.

B10: NA05.9 (scFv)
chain: B1 chain with K3Q, K13R, S14P, G16T, E42G, E136Q, A234G
notes: as for B2
B10: the binding result in test [2] is “binds”.

B11: NA05.6 (scFv)
chain: B1 chain with V37L, V146M
notes: Variant of the CAB1 scFv-BLA fusion (plasmid pME27.1), tested as crude E. coli lysate; also called pNA05.6; parent NA05.6
Regarding B11, the binding result in test [2] was “binds”.

The record behind these values is patent publication US20050084868A1 (published 2005).
